From article PMC4491848

Target: platelet membrane glycoprotein (GP) Ib on human platelets (human (endogenous in platelets)) (UniProt P07359)
Sequence of UniProt P07359 (P07359 17-652, chain 1 of 2): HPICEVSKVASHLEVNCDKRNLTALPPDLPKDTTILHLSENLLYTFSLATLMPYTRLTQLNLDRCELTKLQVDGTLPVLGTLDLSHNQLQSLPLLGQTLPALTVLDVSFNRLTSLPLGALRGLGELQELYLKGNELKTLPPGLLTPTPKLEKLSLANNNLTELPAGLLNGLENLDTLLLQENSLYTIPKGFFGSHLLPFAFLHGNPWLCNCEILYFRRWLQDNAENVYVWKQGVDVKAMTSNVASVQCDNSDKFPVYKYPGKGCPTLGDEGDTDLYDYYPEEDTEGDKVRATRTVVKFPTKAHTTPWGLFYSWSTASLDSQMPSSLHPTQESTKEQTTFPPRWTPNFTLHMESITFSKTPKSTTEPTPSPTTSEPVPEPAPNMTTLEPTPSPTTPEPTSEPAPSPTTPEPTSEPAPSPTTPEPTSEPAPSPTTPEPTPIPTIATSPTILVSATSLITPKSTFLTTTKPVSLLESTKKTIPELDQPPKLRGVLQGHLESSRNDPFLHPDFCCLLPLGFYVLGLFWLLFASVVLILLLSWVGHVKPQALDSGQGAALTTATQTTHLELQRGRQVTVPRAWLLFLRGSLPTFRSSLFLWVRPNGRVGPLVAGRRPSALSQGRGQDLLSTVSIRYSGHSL
Sequence of UniProt P07359 (P13224 26-206, chain 2 of 2, further chain): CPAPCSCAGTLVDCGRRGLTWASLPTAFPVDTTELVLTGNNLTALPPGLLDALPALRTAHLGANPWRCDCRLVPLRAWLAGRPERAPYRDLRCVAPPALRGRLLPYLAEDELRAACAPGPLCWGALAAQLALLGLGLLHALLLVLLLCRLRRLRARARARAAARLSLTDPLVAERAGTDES

Substance	ristocetin-induced platelet aggregation rate in human platelet-rich plasma, dose series up to 3 μg/ml; value at the 3 μg/ml dose; the pair said to be blocked is GPIb and vWF
natural Agkisacutacin (complex)	3.46%
recombinant Agkisacutacin (complex)	5.65%
